In the test the target is Human recombinant FGF 1 (fibroblast growth factor 1) (human) (UniProt P05230). Briefly: native MS.

Take “Human recombinant FGF 1 (fibroblast growth factor 1) (from UniProt P05230 16-155) (natural protein)”: the stoichiometry N (as a rule, the number of molecules, sites or subunits per partner or assembly) came to 2.

The values are drawn from PMC5177502.
